Substrate in data set [1]: O=c1c(O)c(-c2ccc(O)c(O)c2)oc2cc(O)cc(OCc3ccc(COc4cc(O)cc5oc(-c6ccc(O)c(O)c6)c(O)c(=O)c45)cc3)c12
The conditions noted are these: Homo sapiens; 400 uM.

Substrate in data set [2]: O=c1c(OS(=O)(=O)O)c(-c2ccc(OS(=O)(=O)O)c(OS(=O)(=O)O)c2)oc2cc(OS(=O)(=O)O)cc(OCc3ccc(COc4cc(OS(=O)(=O)O)cc5oc(-c6ccc(OS(=O)(=O)O)c(OS(=O)(=O)O)c6)c(OS(=O)(=O)O)c(=O)c45)cc3)c12
The conditions noted are these: Homo sapiens; 40 uM.

Substrate in data set [3]: O=c1c(O)c(-c2ccc(O)c(O)c2)oc2cc(O)cc(OCc3ccc(COc4cc(O)cc5oc(-c6ccc(O)c(O)c6)c(O)c(=O)c45)cc3)c12
The following applies: Homo sapiens; 240 uM.
Description: Uncompetitive allosteric inhibition of human plasmin assessed as substrate Km at 240 uM using chromogenic substrate spectrozyme PL by Michaelis-Menten plot analysis

Substrate in data set [4]: O=c1c(O)c(-c2ccc(O)c(O)c2)oc2cc(O)cc(OCc3ccc(COc4cc(O)cc5oc(-c6ccc(O)c(O)c6)c(O)c(=O)c45)cc3)c12
The conditions noted are these: Homo sapiens; 100 uM.

Substrate in data set [5]: O=c1c(O)c(-c2ccc(O)c(O)c2)oc2cc(O)cc(OCc3ccc(COc4cc(O)cc5oc(-c6ccc(O)c(O)c6)c(O)c(=O)c45)cc3)c12
The conditions noted are these: Homo sapiens; 400 uM. This is another data set of the same source.

Substrate in data set [6]: O=c1c(OS(=O)(=O)O)c(-c2ccc(OS(=O)(=O)O)c(OS(=O)(=O)O)c2)oc2cc(OS(=O)(=O)O)cc(OCc3ccc(COc4cc(OS(=O)(=O)O)cc5oc(-c6ccc(OS(=O)(=O)O)c(OS(=O)(=O)O)c6)c(OS(=O)(=O)O)c(=O)c45)cc3)c12
The conditions noted are these: Homo sapiens; 1.6 uM.
Description: Uncompetitive allosteric inhibition of human plasmin assessed as substrate Km at 1.6 uM using chromogenic substrate spectrozyme PL by Michaelis-Menten plot analysis

Substrate in data set [7]: O=c1c(OS(=O)(=O)O)c(-c2ccc(OS(=O)(=O)O)c(OS(=O)(=O)O)c2)oc2cc(OS(=O)(=O)O)cc(OCc3ccc(COc4cc(OS(=O)(=O)O)cc5oc(-c6ccc(OS(=O)(=O)O)c(OS(=O)(=O)O)c6)c(OS(=O)(=O)O)c(=O)c45)cc3)c12
The following applies: Homo sapiens; 200 uM.

Substrate in data set [8]: O=c1c(O)c(-c2ccc(O)c(O)c2)oc2cc(O)cc(OCc3ccc(COc4cc(O)cc5oc(-c6ccc(O)c(O)c6)c(O)c(=O)c45)cc3)c12
The following applies: Homo sapiens; 100 uM. This is another data set of the same source.

Substrate in data set [9]: O=c1c(OS(=O)(=O)O)c(-c2ccc(OS(=O)(=O)O)c(OS(=O)(=O)O)c2)oc2cc(OS(=O)(=O)O)cc(OCc3ccc(COc4cc(OS(=O)(=O)O)cc5oc(-c6ccc(OS(=O)(=O)O)c(OS(=O)(=O)O)c6)c(OS(=O)(=O)O)c(=O)c45)cc3)c12
The conditions noted are these: Homo sapiens; 200 uM. This is another data set of the same source.

Substrate in data set [10]: O=c1c(OS(=O)(=O)O)c(-c2ccc(OS(=O)(=O)O)c(OS(=O)(=O)O)c2)oc2cc(OS(=O)(=O)O)cc(OCc3ccc(COc4cc(OS(=O)(=O)O)cc5oc(-c6ccc(OS(=O)(=O)O)c(OS(=O)(=O)O)c6)c(OS(=O)(=O)O)c(=O)c45)cc3)c12
The following applies: Homo sapiens; 8 uM.
Description: Uncompetitive allosteric inhibition of human plasmin assessed as Vmax for substrate hydrolysis at 8 uM using chromogenic substrate spectrozyme PL by Michaelis-Menten plot analysis

Substrate in data set [11]: O=c1c(OS(=O)(=O)O)c(-c2ccc(OS(=O)(=O)O)c(OS(=O)(=O)O)c2)oc2cc(OS(=O)(=O)O)cc(OCc3ccc(COc4cc(OS(=O)(=O)O)cc5oc(-c6ccc(OS(=O)(=O)O)c(OS(=O)(=O)O)c6)c(OS(=O)(=O)O)c(=O)c45)cc3)c12
The following applies: Homo sapiens; 100 uM.

Substrate in data set [12]: O=c1c(OS(=O)(=O)O)c(-c2ccc(OS(=O)(=O)O)c(OS(=O)(=O)O)c2)oc2cc(OS(=O)(=O)O)cc(OCc3ccc(COc4cc(OS(=O)(=O)O)cc5oc(-c6ccc(OS(=O)(=O)O)c(OS(=O)(=O)O)c6)c(OS(=O)(=O)O)c(=O)c45)cc3)c12
The conditions noted are these: Homo sapiens; 8 uM. This is another data set of the same source.
Description: Uncompetitive allosteric inhibition of human plasmin assessed as substrate Km at 8 uM using chromogenic substrate spectrozyme PL by Michaelis-Menten plot analysis

Substrate in data set [13]: O=c1c(O)c(-c2ccc(O)c(O)c2)oc2cc(O)cc(OCc3ccc(COc4cc(O)cc5oc(-c6ccc(O)c(O)c6)c(O)c(=O)c45)cc3)c12
The following applies: Homo sapiens; 240 uM. This is another data set of the same source.
Description: Competitive allosteric inhibition of human plasmin assessed as Vmax for substrate hydrolysis at 240 uM using chromogenic substrate spectrozyme PL by Michaelis-Menten plot analysis

Substrate in data set [14]: O=c1c(OS(=O)(=O)O)c(-c2ccc(OS(=O)(=O)O)c(OS(=O)(=O)O)c2)oc2cc(OS(=O)(=O)O)cc(OCc3ccc(COc4cc(OS(=O)(=O)O)cc5oc(-c6ccc(OS(=O)(=O)O)c(OS(=O)(=O)O)c6)c(OS(=O)(=O)O)c(=O)c45)cc3)c12
The following applies: Homo sapiens; 100 uM. The source holds these as a separate data set.

Substrate in data set [15]: O=c1c(OS(=O)(=O)O)c(-c2ccc(OS(=O)(=O)O)c(OS(=O)(=O)O)c2)oc2cc(OS(=O)(=O)O)cc(OCc3ccc(COc4cc(OS(=O)(=O)O)cc5oc(-c6ccc(OS(=O)(=O)O)c(OS(=O)(=O)O)c6)c(OS(=O)(=O)O)c(=O)c45)cc3)c12
The following applies: Homo sapiens; 1.6 uM. This is another data set of the same source.
Description: Uncompetitive allosteric inhibition of human plasmin assessed as Vmax for substrate hydrolysis at 1.6 uM using chromogenic substrate spectrozyme PL by Michaelis-Menten plot analysis

Substrate in data set [16]: O=c1c(OS(=O)(=O)O)c(-c2ccc(OS(=O)(=O)O)c(OS(=O)(=O)O)c2)oc2cc(OS(=O)(=O)O)cc(OCc3ccc(COc4cc(OS(=O)(=O)O)cc5oc(-c6ccc(OS(=O)(=O)O)c(OS(=O)(=O)O)c6)c(OS(=O)(=O)O)c(=O)c45)cc3)c12
The conditions noted are these: Homo sapiens; 40 uM. This is another data set of the same source.

B1: Plasminogen (Homo sapiens), P00747 (protein)
chain: MEHKEVVLLLLLFLKSGQGEPLDDYVNTQGASLFSVTKKQLGAGSIEECAAKCEEDEEFTCRAFQYHSKEQQCVIMAENRKSSIIIRMRDVVLFEKKVYLSECKTGNGKNYRGTMSKTKNGITCQKWSSTSPHRPRFSPATHPSEGLEENYCRNPDNDPQGPWCYTTDPEKRYDYCDILECEEECMHCSGENYDGKISKTMSGLECQAWDSQSPHAHGYIPSKFPNKNLKKNYCRNPDRELRPWCFTTDPNKRWELCDIPRCTTPPPSSGPTYQCLKGTGENYRGNVAVTVSGHTCQHWSAQTPHTHNRTPENFPCKNLDENYCRNPDGKRAPWCHTTNSQVRWEYCKIPSCDSSPVSTEQLAPTAPPELTPVVQDCYHGDGQSYRGTSSTTTTGKKCQSWSSMTPHRHQKTPENYPNAGLTMNYCRNPDADKGPWCFTTDPSVRWEYCNLKKCSGTEASVVAPPPVVLLPDVETPSEEDCMFGNGKGYRGKRATTVTGTPCQDWAAQEPHRHSIFTPETNPRAGLEKNYCRNPDGDVGGPWCYTTNPRKLYDYCDVPQCAAPSFDCGKPQVEPKKCPGRVVGGCVAHPHSWPWQVSLRTRFGMHFCGGTLISPEWVLTAAHCLEKSPRPSSYKVILGAHQEVNLEPHVQEIEVSRLFLEPTRKDIALLKLSSPAVITDKVIPACLPSPNYVVADRTECFITGWGETQGTFGAGLLKEAQLPVIENKVCNRYEFLNGRVQSTELCAGHLAGGTDSCQGDSGGPLVCFEKDKYILQGVTSWGLGCARPNKPGVYVRVSRFVTWIEGVMRNN
As usually defined, the Km is the substrate concentration at which the rate is half of its maximum. With B1, the Km in data set [1] worked out at 1120 µM; in [2], 20 µM; in [3] it was 807 µM; in data set [4] it was 357 µM; in data set [6], 50 µM; in [9], 4 µM. Moreover, the Michaelis-Menten constant (Km) stood at 8 µM in data set [11] and 20 µM in data set [12]. For the same protein, the Vmax was found to be 51.3 mAU/min in data set [5]; 10.4 mAU/min in data set [7]; 51 mAU/min in [8]; 29 mAU/min in data set [10]; 51.7 mAU/min in data set [13]; 15.1 mAU/min in data set [14]. The Vmax worked out at 36.3 mAU/min in data set [15] and 22.1 mAU/min in data set [16].

Source of the values: ChEMBL document CHEMBL4043061, “Potent, Selective, Allosteric Inhibition of Human Plasmin by Sulfated Non-Saccharide Glycosaminoglycan Mimetics” (J Med Chem, 2017).
